What all share (assay): ITC; peptide (approximately 1 mM) titrated into protein (0.05 mM), 20°C, Buffer E (20 mM Tris-HCl, 200 mM NaCl, pH 7.5), single binding site model, duplicate
Common to all, as to settings: both partners purified
Background: Isothermal titration calorimetry measures the heat released or taken up as one component is titrated into another.

The target in assay [1] is human WDR5 seven tandem WD-40 domain (residues 24–334) (human, UniProt P61964 24-334).
The target is the same in assay [2]. This is another data set of the same source.
The target of assay [3] is WDR5 Y191F variant (residues 24–334) (human, UniProt P61964 24-334, Y191F).

B1: Kif2A 114–120 peptide (peptide)
peptide: GSARARP
notes: also called truncated Kif2A; source: synthetic peptide (GenScript)
As to B1, in assay [1], the Kd turned out to be 6.71 µM, the dH is -9.2 ± 0.11 kcal/mol and the “stoichiometry N” value is 1.19.
Consider GSARARPAQ [Kif2A S121A peptide], for which, in assay [2], the affinity, expressed as Kd, was 2160 nM; the dH is -13 ± 0.12 kcal/mol; the “stoichiometry N” value worked out at 0.97.

B2: Kif2A 114–122 peptide (peptide)
peptide: GSARARPSQ
notes: also called wild-type Kif2A; source: synthetic peptide (GenScript)
Turning to B2, in assay [1], binding was put at a Kd of 0.78 µM, the dH is -15.7 ± 0.13 kcal/mol and the “stoichiometry N” value stood at 0.91. In assay [3], the Kd is 960 nM, the dH was -9 ± 0.08 kcal/mol and the “stoichiometry N” value is 1.27.

B3: Kif2A 114–122 (S121G) peptide (peptide)
peptide: GSARARPGQ
notes: also called Kif2A^S121G; source: synthetic peptide (GenScript)
On to B3, for which, in assay [1], the Kd stood at 3.72 µM, the dH is -10.6 ± 0.14 kcal/mol and the “stoichiometry N” value was found to be 0.94.

What is called Kd is the equilibrium constant for the complex coming apart. Lower therefore signals tighter binding. The stoichiometry N is the number of molecules, sites or subunits per partner or assembly.

Source of the values: paper PMC12747932, “Crystal structures of Kif2A complexed with WDR5 reveal the structural plasticity of WIN-S7 sites” (Acta Biochimica et Biophysica Sinica, 2025).
